{
  "source": "patent US20240408248A1",
  "about": "“GRANZYME B-TARGETING COMPLEX, RADIOPHARMACEUTICAL, PREPARATION METHOD THEREFOR AND USE THEREOF” (priority 2021, published 2024)",
  "key": {"Granzyme B in 4T1 tumors": {"molecular_target": "T1, Granzyme B in 4T1 tumors (Mus musculus, UniProt P04187)", "T1 construct": "from tissue; host or cells: 4T1 tumors in living BALB/c mice", "T1 sequence (P04187 21-247)": "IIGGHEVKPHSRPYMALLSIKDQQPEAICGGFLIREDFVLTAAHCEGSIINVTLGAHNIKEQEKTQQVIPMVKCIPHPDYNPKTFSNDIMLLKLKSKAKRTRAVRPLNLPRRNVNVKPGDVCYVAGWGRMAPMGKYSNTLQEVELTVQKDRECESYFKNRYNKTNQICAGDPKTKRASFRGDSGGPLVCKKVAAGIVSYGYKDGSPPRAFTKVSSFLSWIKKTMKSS", "set-up": "species or system BALB/c mice", "conditions": "in vivo", "experimental": "(§1) MC38 and 4T1 tumor cells were inoculated subcutaneously in the right axilla of C57 and BALB/c mice, respectively, to establish immunotherapy pseudo-progression and true-progression mouse models. 200 μg of the anti-PD-1 antibody and anti-CTLA-4 antibody were injected intraperitoneally for a total of 3 times on days 0, 3 and 6, respectively. […] After injection for 0.5 h, the animals were anesthetized with isoflurane for PET/CT imaging. The changes of the tumor size in MC38 and 4T1 tumor-bearing mice were measured by a vernier caliper."}, "tumor Granzyme B [1]": {"molecular_target": "T2, tumor Granzyme B (Mus musculus, UniProt P04187)", "T2 construct": "from tissue; host or cells: MC38 tumors in living C57 mice", "T2 sequence (P04187 21-247)": "T1 sequence (P04187 21-247)", "test": "PET/CT imaging in MC38 tumor-bearing mice, comparison with radiopharmaceuticals with similar structures", "format": "in vivo, C57 mice", "conditions": "7.4 MBq via tail vein, 0.5 h after injection, compared with the other three comparative radiopharmaceuticals", "experimental": "In order to compare the in vivo nuclear medicine imaging advantages of the Granzyme B-targeting complex of the present invention, three Granzyme B-targeting complexes with similar structures are prepared by a similar synthesis method. All of them were labeled with ^68Ga after DOTA coupling to obtain the corresponding Granzyme B-targeting radioactive compounds. 7.4 MBq of the freshly prepared ^68Ga-labeled complex was taken and injected into female C57 mice bearing MC38 tumors via the tail vein. After injection for 0.5 h, the animals were anesthetized with isoflurane for PET/CT imaging. The result is illustrated in FIG. 11, showing that the ^68Ga-labelled DOTA complex of the present invention had optimal tumor Granzyme B uptake and low normal tissue (e.g. gastrointestinal tract) uptake compared with the other three comparative radiopharmaceuticals."}, "[2]": {"molecular_target": "T3, Granzyme B in MC38 tumors (Mus musculus, UniProt P04187)", "T3 construct": "from tissue; host or cells: MC38 tumors in living C57 mice", "T3 sequence (P04187 21-247)": "T1 sequence (P04187 21-247)", "set-up": "species or system C57 mice", "conditions": "in vivo", "experimental": "as §1"}, "tumor Granzyme B [3]": {"molecular_target": "T2, tumor Granzyme B", "test": "SPECT/CT imaging of tumor Granzyme B in MC38 tumor-bearing mice", "format": "in vivo, C57 mice", "conditions": "18.5 MBq via tail vein, 0.5 h after injection", "experimental": "SPECT imaging of tumor Granzyme B with a ^99mTc-labeled HYNIC complex. 18.5 MBq of the freshly prepared ^99mTc-labeled HYNIC complex was taken and injected into female C57 mice bearing MC38 tumors in the right axilla via the tail vein. After injection for 0.5 h, the animals were anesthetized with isoflurane for SPECT/CT imaging."}},
  "data": [
    {"smiles": "CC[C@H](C)[C@H](NC(=O)Cc1cccc(CNC(=O)C[C@H](NC(=O)C[C@H](NC(=O)CN2CCN(CC(=O)O)CCN(CC(=O)O)CCN(CC(=O)O)CC2)C(=O)O)C(=O)O)c1)C(=O)N[C@H]1CCc2cccc3c2N(C1=O)[C@H](C(=O)NCc1cn[nH]n1)C3", "note": "[^68Ga-labeled DOTA complex, metal not drawn]", "values": [
      {"measurement": "tumor uptake on day 6 versus day 0", "setting": "Granzyme B in 4T1 tumors", "result": "no significant difference"},
      {"measurement": "normal tissue (e.g. gastrointestinal tract) uptake", "setting": "tumor Granzyme B [1]", "result": "low"},
      {"measurement": "tumor uptake at day 6 versus day 0", "setting": "[2]", "result": "significantly higher than that at day 0"}
    ]},
    {"smiles": "CC[C@H](C)[C@H](NC(=O)Cc1cccc(CNC(=O)C[C@H](NC(=O)C[C@H](NC(=O)c2ccc(NN)nc2)C(=O)O)C(=O)O)c1)C(=O)N[C@H]1CCc2cccc3c2N(C1=O)[C@H](C(=O)NCc1cn[nH]n1)C3", "note": "[^99mTc-labeled HYNIC complex, metal not drawn]", "values": [
      {"measurement": "uptake value in MC38 tumors (SPECT)", "setting": "tumor Granzyme B [3]", "result": "good uptake value"}
    ]}
  ]
}
